The test system of one assay is GFP-14-3-3β. Put plainly: GFP-14-3-3β co-IP with LC-MS/MS, untreated GFP-14-3-3β versus GFP control (14-3-3 interactome). Type of assay: binding, human. The following applies: pairwise comparison untreated vs GFP.
Assay [1] relates to GFP-14-3-3β and its binding proteins. Nature of the assay: GFP-14-3-3β co-IP with LC-MS/MS label-free quantification, untreated versus PP1c-treated. On the set-up: species or system human. The following applies: pairwise comparison PP1 vs untreated.
Where [2] appears, read: log2 difference, label-free quantification, 3 replicates each.

The record followed here is article PMC7367873, “Dissecting the sequence determinants for dephosphorylation by the catalytic subunits of phosphatases PP1 and PP2A” (Nature Communications, 2020).

B1: TSR1 (protein, UniProt Q2NL82 1-804, looked up)
Pre-rRNA-processing protein …: MAAHRPGPLKQQNKAHKGGRHRGRGSAQRDGKGRLALKTLSKKVRKELSRVDQRHRASQLRKQKKEAVLAEKRQLGGKDGPPHQVLVVPLHSRISLPEAMQLLQDRDTGTVHLNELGNTQNFMLLCPRLKHRWFFTSARPGDLHVVLDMAKVADTILFLLDPLEGWDSTGDYCLSCLFAQGLPTYTLAVQGISGLPLKKQIDTRKKLSKAVEKRFPHDKLLLLDTQQEAGMLLRQLANQKQQHLAFRDRRAYLFAHAVDFVPSEENNLVGTLKISGYVRGQTLNVNRLLHIVGYGDFQMKQIDAPGDPFPLNPRGIKPQKDPDMAMEICATDAVDDMEEGLKVLMKADPGRQESLQAEVIPDPMEGEQTWPTEEELSEAKDFLKESSKVVKKVPKGTSSYQAEWILDGGSQSGGEGDEYEYDDMEHEDFMEEESQDESSEEEEEYETMTIGESVHDDLYDKKVDEEAEAKMLEKYKQERLEEMFPDEVDTPRDVAARIRFQKYRGLKSFRTSPWDPKENLPQDYARIFQFQNFTNTRKSIFKEVEEKEVEGAEVGWYVTLHVSEVPVSVVECFRQGTPLIAFSLLPHEQKMSVLNMVVRRDPGNTEPVKAKEELIFHCGFRRFRASPLFSQHTAADKHKLQRFLTADMALVATVYAPITFPPASVLLFKQKSNGMHSLIATGHLMSVDPDRMVIKRVVLSGHPFKIFTKMAVVRYMFFNREDVLWFKPVELRTKWGRRGHIKEPLGTHGHMKCSFDGKLKSQDTVLMNLYKRVFPKWTYDPYVPEPVPWLKSEISSTVPQGGME
B1: the “Difference (log2), untreated vs GFP” value in the assay with GFP-14-3-3β is reported as 1.267 log2. In assay [1], the “Difference (log2), PP1 vs untreated” value amounted to 0.01439 log2.

B2: EEF1A1P5;EEF1A1 (protein, UniProt P68104 2-462, looked up)
Elongation factor 1-alpha 1: GKEKTHINIVVIGHVDSGKSTTTGHLIYKCGGIDKRTIEKFEKEAAEMGKGSFKYAWVLDKLKAERERGITIDISLWKFETSKYYVTIIDAPGHRDFIKNMITGTSQADCAVLIVAAGVGEFEAGISKNGQTREHALLAYTLGVKQLIVGVNKMDSTEPPYSQKRYEEIVKEVSTYIKKIGYNPDTVAFVPISGWNGDNMLEPSANMPWFKGWKVTRKDGNASGTTLLEALDCILPPTRPTDKPLRLPLQDVYKIGGIGTVPVGRVETGVLKPGMVVTFAPVNVTTEVKSVEMHHEALSEALPGDNVGFNVKNVSVKDVRRGNVAGDSKNDPPMEAAGFTAQVIILNHPGQISAGYAPVLDCHTAHIACKFAELKEKIDRRSGKKLEDGPKFLKSGDAAIVDMVPGKPMCVESFSDYPPLGRFAVRDMRQTVAVGVIKAVDKKAAGAGKVTKSAQKAQKAK
Regarding B2, the “Difference (log2), untreated vs GFP” value in the assay with GFP-14-3-3β is listed as -0.241 log2. Moreover, the “Difference (log2), PP1 vs untreated” value in assay [1] was determined as 0.02225 log2.

B3: LYPD3 (protein, UniProt O95274 31-326, looked up)
Ly6/PLAUR domain-containing …: LECYSCVQKADDGCSPNKMKTVKCAPGVDVCTEAVGAVETIHGQFSLAVRGCGSGLPGKNDRGLDLHGLLAFIQLQQCAQDRCNAKLNLTSRALDPAGNESAYPPNGVECYSCVGLSREACQGTSPPVVSCYNASDHVYKGCFDGNVTLTAANVTVSLPVRGCVQDEFCTRDGVTGPGFTLSGSCCQGSRCNSDLRNKTYFSPRIPPLVRLPPPEPTTVASTTSVTTSTSAPVRPTSTTKPMPAPTSQTPRQGVEHEASRDEEPRLTGGAAGHQDRSNSGQYPAKGGPQQPHNKGC
On to B3, for which the “Difference (log2), untreated vs GFP” value with GFP-14-3-3β was -0.7562 log2. The “Difference (log2), PP1 vs untreated” value in assay [1] was 0.03143 log2.

B4: DDX17 (protein, UniProt Q92841 1-729, looked up)
Probable ATP-dependent RNA …: MPTGFVAPILCVLLPSPTREAATVASATGDSASERESAAPAAAPTAEAPPPSVVTRPEPQALPSPAIRAPLPDLYPFGTMRGGGFGDRDRDRDRGGFGARGGGGLPPKKFGNPGERLRKKKWDLSELPKFEKNFYVEHPEVARLTPYEVDELRRKKEITVRGGDVCPKPVFAFHHANFPQYVMDVLMDQHFTEPTPIQCQGFPLALSGRDMVGIAQTGSGKTLAYLLPAIVHINHQPYLERGDGPICLVLAPTRELAQQVQQVADDYGKCSRLKSTCIYGGAPKGPQIRDLERGVEICIATPGRLIDFLESGKTNLRRCTYLVLDEADRMLDMGFEPQIRKIVDQIRPDRQTLMWSATWPKEVRQLAEDFLRDYTQINVGNLELSANHNILQIVDVCMESEKDHKLIQLMEEIMAEKENKTIIFVETKRRCDDLTRRMRRDGWPAMCIHGDKSQPERDWVLNEFRSGKAPILIATDVASRGLDVEDVKFVINYDYPNSSEDYVHRIGRTARSTNKGTAYTFFTPGNLKQARELIKVLEEANQAINPKLMQLVDHRGGGGGGGGRSRYRTTSSANNPNLMYQDECDRRLRGVKDGGRRDSASYRDRSETDRAGYANGSGYGSPNSAFGAQAGQYTYGQGTYGAAAYGTSSYTAQEYGAGTYGASSTTSTGRSSQSSSQQFSGIGRSGQQPQPLMSQQFAQPPGATNMIGYMGQTAYQYPPPPPPPPPSRK
With B4, the “Difference (log2), untreated vs GFP” value with GFP-14-3-3β amounted to 0.6933 log2. In addition, the “Difference (log2), PP1 vs untreated” value in assay [1] is 0.07996 log2.

B5: SLC3A2 (protein, UniProt P08195 1-630, looked up)
Amino acid transporter heavy …: MELQPPEASIAVVSIPRQLPGSHSEAGVQGLSAGDDSELGSHCVAQTGLELLASGDPLPSASQNAEMIETGSDCVTQAGLQLLASSDPPALASKNAEVTGTMSQDTEVDMKEVELNELEPEKQPMNAASGAAMSLAGAEKNGLVKIKVAEDEAEAAAAAKFTGLSKEELLKVAGSPGWVRTRWALLLLFWLGWLGMLAGAVVIIVRAPRCRELPAQKWWHTGALYRIGDLQAFQGHGAGNLAGLKGRLDYLSSLKVKGLVLGPIHKNQKDDVAQTDLLQIDPNFGSKEDFDSLLQSAKKKSIRVILDLTPNYRGENSWFSTQVDTVATKVKDALEFWLQAGVDGFQVRDIENLKDASSFLAEWQNITKGFSEDRLLIAGTNSSDLQQILSLLESNKDLLLTSSYLSDSGSTGEHTKSLVTQYLNATGNRWCSWSLSQARLLTSFLPAQLLRLYQLMLFTLPGTPVFSYGDEIGLDAAALPGQPMEAPVMLWDESSFPDIPGAVSANMTVKGQSEDPGSLLSLFRRLSDQRSKERSLLHGDFHAFSAGPGLFSYIRHWDQNERFLVVLNFGDVGLSAGLQASDLPASASLPAKADLLLSTQPGREEGSPLELERLKLEPHEGLLLRFPYAA
With B5, the “Difference (log2), untreated vs GFP” value in the assay on GFP-14-3-3β worked out at 0.2155 log2. The “Difference (log2), PP1 vs untreated” value in assay [1] was 0.07419 log2.

B6: SOAT1 (protein, UniProt P35610 1-550, looked up)
Sterol O-acyltransferase 1: MVGEEKMSLRNRLSKSRENPEEDEDQRNPAKESLETPSNGRIDIKQLIAKKIKLTAEAEELKPFFMKEVGSHFDDFVTNLIEKSASLDNGGCALTTFSVLEGEKNNHRAKDLRAPPEQGKIFIARRSLLDELLEVDHIRTIYHMFIALLILFILSTLVVDYIDEGRLVLEFSLLSYAFGKFPTVVWTWWIMFLSTFSVPYFLFQHWATGYSKSSHPLIRSLFHGFLFMIFQIGVLGFGPTYVVLAYTLPPASRFIIIFEQIRFVMKAHSFVRENVPRVLNSAKEKSSTVPIPTVNQYLYFLFAPTLIYRDSYPRNPTVRWGYVAMKFAQVFGCFFYVYYIFERLCAPLFRNIKQEPFSARVLVLCVFNSILPGVLILFLTFFAFLHCWLNAFAEMLRFGDRMFYKDWWNSTSYSNYYRTWNVVVHDWLYYYAYKDFLWFFSKRFKSAAMLAVFAVSAVVHEYALAVCLSFFYPVLFVLFMFFGMAFNFIVNDSRKKPIWNVLMWTSLFLGNGVLLCFYSQEWYARQHCPLKNPTFLDYVRPRSWTCRYVF
With B6, the “Difference (log2), untreated vs GFP” value with GFP-14-3-3β worked out at 0.443 log2. Also, the “Difference (log2), PP1 vs untreated” value in assay [1] is 0.06363 log2.

B7: NAP1L1 (protein, UniProt P55209 2-388, looked up)
Nucleosome assembly protein …: ADIDNKEQSELDQDLDDVEEVEEEETGEETKLKARQLTVQMMQNPQILAALQERLDGLVETPTGYIESLPRVVKRRVNALKNLQVKCAQIEAKFYEEVHDLERKYAVLYQPLFDKRFEIINAIYEPTEEECEWKPDEEDEISEELKEKAKIEDEKKDEEKEDPKGIPEFWLTVFKNVDLLSDMVQEHDEPILKHLKDIKVKFSDAGQPMSFVLEFHFEPNEYFTNEVLTKTYRMRSEPDDSDPFSFDGPEIMGCTGCQIDWKKGKNVTLKTIKKKQKHKGRGTVRTVTKTVSNDSFFNFFAPPEVPESGDLDDDAEAILAADFEIGHFLRERIIPRSVLYFTGEAIEDDDDDYDEEGEEADEEGEEEGDEENDPDYDPKKDQNPAEC
In the case of B7, in the assay on GFP-14-3-3β (setting [2]), the “Difference (log2), untreated vs GFP” value is listed as -0.3295. Besides, the “Difference (log2), PP1 vs untreated” value in assay [1] (setting [2]) was 1.883.

B8: HDLBP (protein, UniProt Q00341 2-1268, looked up)
Vigilin: SSVAVLTQESFAEHRSGLVPQQIKVATLNSEEESDPPTYKDAFPPLPEKAACLESAQEPAGAWGNKIRPIKASVITQVFHVPLEERKYKDMNQFGEGEQAKICLEIMQRTGAHLELSLAKDQGLSIMVSGKLDAVMKARKDIVARLQTQASATVAIPKEHHRFVIGKNGEKLQDLELKTATKIQIPRPDDPSNQIKITGTKEGIEKARHEVLLISAEQDKRAVERLEVEKAFHPFIAGPYNRLVGEIMQETGTRINIPPPSVNRTEIVFTGEKEQLAQAVARIKKIYEEKKKKTTTIAVEVKKSQHKYVIGPKGNSLQEILERTGVSVEIPPSDSISETVILRGEPEKLGQALTEVYAKANSFTVSSVAAPSWLHRFIIGKKGQNLAKITQQMPKVHIEFTEGEDKITLEGPTEDVNVAQEQIEGMVKDLINRMDYVEINIDHKFHRHLIGKSGANINRIKDQYKVSVRIPPDSEKSNLIRIEGDPQGVQQAKRELLELASRMENERTKDLIIEQRFHRTIIGQKGERIREIRDKFPEVIINFPDPAQKSDIVQLRGPKNEVEKCTKYMQKMVADLVENSYSISVPIFKQFHKNIIGKGGANIKKIREESNTKIDLPAENSNSETIIITGKRANCEAARSRILSIQKDLANIAEVEVSIPAKLHNSLIGTKGRLIRSIMEECGGVHIHFPVEGSGSDTVVIRGPSSDVEKAKKQLLHLAEEKQTKSFTVDIRAKPEYHKFLIGKGGGKIRKVRDSTGARVIFPAAEDKDQDLITIIGKEDAVREAQKELEALIQNLDNVVEDSMLVDPKHHRHFVIRRGQVLREIAEEYGGVMVSFPRSGTQSDKVTLKGAKDCVEAAKKRIQEIIEDLEAQVTLECAIPQKFHRSVMGPKGSRIQQITRDFSVQIKFPDREENAVHSTEPVVQENGDEAGEGREAKDCDPGSPRRCDIIIISGRKEKCEAAKEALEALVPVTIEVEVPFDLHRYVIGQKGSGIRKMMDEFEVNIHVPAPELQSDIIAITGLAANLDRAKAGLLERVKELQAEQEDRALRSFKLSVTVDPKYHPKIIGRKGAVITQIRLEHDVNIQFPDKDDGNQPQDQITITGYEKNTEAARDAILRIVGELEQMVSEDVPLDHRVHARIIGARGKAIRKIMDEFKVDIRFPQSGAPDPNCVTVTGLPENVEEAIDHILNLEEEYLADVVDSEALQVYMKPPAHEEAKAPSRGFVVRDAPWTASSSEKAPDMSSSEEFPSFGAQVAPKTLPWGPKR
With B8, in the assay with GFP-14-3-3β, the “Difference (log2), untreated vs GFP” value is listed as 0.159 log2. Besides, in assay [1], the “Difference (log2), PP1 vs untreated” value was 0.06756 log2.
